The target in data set [1] is T1, Escherichia coli inclusion body-associated protein B (Escherichia coli, UniProt P0C058 1-142).
T1 construct: Small heat shock protein IbpB of Escherichia coli; also called IbpBEc; His-IbpBEc; source: purified with Ni-NTA agarose upon denaturation by 6 M urea
T1 sequence (looked up): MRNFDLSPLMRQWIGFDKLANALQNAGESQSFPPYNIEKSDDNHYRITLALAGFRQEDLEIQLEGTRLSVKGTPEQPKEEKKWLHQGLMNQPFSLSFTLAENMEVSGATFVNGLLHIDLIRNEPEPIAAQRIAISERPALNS
Kind of data set: co-sedimentation; sucrose density gradient centrifugation: IbpAEc (3 μM) and IbpBEc (7 μM) in buffer F incubated at room temperature for 30 min, 10% to 30% (w/v) sucrose gradient; SDS-PAGE with 6 M urea and CBB staining. Conditions: both partners purified.

Data set [2] deals with the molecule itself. Description: sucrose density gradient centrifugation; purified IbpA (3 μM, dimeric units) alone in buffer F (50 mM Hepes-KOH pH 7.6, 0.1 M KCl, 5 mM DTT, 20 mM Mg-acetate) on a 10% to 30% (w/v) sucrose gradient, SW 41 Ti, 35,000 rpm, 4 °C, 80 min; fractions by SDS-PAGE with Western blot (anti-IbpA) or CBB staining; oligomeric state. Background: Immunoblotting shows a protein as a band on a membrane.

B1: Escherichia coli inclusion body-associated protein A, wild type (natural protein, UniProt P0C054 1-137, looked up)
chain: MRNFDLSPLYRSAIGFDRLFNHLENNQSQSNGGYPPYNVELVDENHYRIAIAVAGFAESELEITAQDNLLVVKGAHADEQKERTYLYQGIAERNFERKFQLAENIHVRGANLVNGLLYIDLERVIPEAKKPRRIEIN
notes: Small heat shock protein IbpA of Escherichia coli, expressed from pCA24N-ibpAEc; also called IbpAEc; IbpAEc-WT; source: E. coli BW25113ΔAB, overexpressed (0.5 mM IPTG), purified (anion exchange chromatography)
B1: the binding result in data set [1] and in data set [2] was “binds” in each case.

B2: Escherichia coli inclusion body-associated protein A, R93A mutant (natural protein, UniProt P0C054 1-137, looked up)
chain: MRNFDLSPLYRSAIGFDRLFNHLENNQSQSNGGYPPYNVELVDENHYRIAIAVAGFAESELEITAQDNLLVVKGAHADEQKERTYLYQGIAEANFERKFQLAENIHVRGANLVNGLLYIDLERVIPEAKKPRRIEIN
notes: Small heat shock protein IbpA of Escherichia coli with R93A, made by site-directed mutagenesis of pCA24N-ibpAEc; also called IbpAEc-R93A; IbpA-R93A; source: E. coli BW25113ΔAB, overexpressed (0.5 mM IPTG), purified (anion exchange chromatography)
Take B2: the binding result in data set [1] and in data set [2] was “binds” throughout.

(Values after publication PMC10474464, “The mRNA binding-mediated self-regulatory function of small heat shock protein IbpA in γ-proteobacteria is conferred by a conserved arginine” (The Journal of Biological Chemistry, 2023).)
